FireProtDB (doi:10.1007/s10930-006-9055-y)

Conditions: Weissella confusa, Thermal, reversible: No, whole UniProt chain shown
[1] = pH 6, DSC, Natrium phosphate Imidazol 50 mM 250 mM, NaCl 300 mM
[2] = pH 7, DSC, Natrium phosphate Imidazol 50 mM 250 mM, NaCl 300 mM
[3] = pH 8, DSC, Natrium phosphate Imidazol 50 mM 250 mM, NaCl 300 mM

B1: L-2-hydroxyisocaproate dehydrogenase wild type, P14295 (protein)
chain: MARKIGIIGLGNVGAAVAHGLIAQGVADDYVFIDANEAKVKADQIDFQDAMANLEAHGNIVINDWAALADADVVISTLGNIKLQQDNPTGDRFAELKFTSSMVQSVGTNLKESGFHGVLVVISNPVDVITALFQHVTGFPAHKVIGTGTLLDTARMQRAVGEAFDLDPRSVSGYNLGEHGNSQFVAWSTVRVMGQPIVTLADAGDIDLAAIEEEARKGGFTVLNGKGYTSYGVATSAIRIAKAVMADAHAELVVSNRRDDMGMYLSYPAIIGRDGVLAETTLDLTTDEQEKLLQSRDYIQQRFDEIVDTL
Tm (pH 6, CD, Potassium phosphate 5 mM): 56.8 °C | Tm [1]: 62.5 °C | unfolding enthalpy (calorimetric) [1]: 222 kcal/mol | unfolding enthalpy (van 't Hoff) [1]: 227 kcal/mol | Tm (pH 6, DSC, Potassium phosphate 5 mM): 57.2 °C | Tm (pH 7, CD, Potassium phosphate 5 mM): 60.2 °C | Tm [2]: 55.1 °C | unfolding enthalpy (calorimetric) [2]: 203 kcal/mol | unfolding enthalpy (van 't Hoff) [2]: 202 kcal/mol | Tm (pH 7, DSC, Potassium phosphate 5 mM): 59.6 °C | Tm (pH 8, CD, Potassium phosphate 5 mM): 56.2 °C | Tm [3]: 44.1 °C | unfolding enthalpy (calorimetric) [3]: 221 kcal/mol | unfolding enthalpy (van 't Hoff) [3]: 225 kcal/mol
